# Assay results: publication PMC10287916, “MSH2-MSH3 promotes DNA end resection during homologous recombination and blocks polymerase theta-mediated end-joining through interaction with SMARCAD1 and EXO1” (Nucleic Acids Research, 2023)
# What was measured:
# [1] = molecular target: T1, MSH2-MSH6 (MutSα), purified (human, UniProt P43246 1-934; P52701 1-1360); assay: native gel or EMSA; 4 μM or 8 μM SMARCAD1 incubated with 1 nM Cy5-labeled 40 bp homoduplex, GT mismatch or 58 bp flap DNA in buffer H with 1 mM ATP, then MSH2-MSH6 titrated, 5 min; details: both partners purified
# T1 construct: MSH2, human, full length; MSH6, human, full length; source: Hi5 insect cells (baculovirus), purified (HiTrap Heparin HP, HiTrap Q HP, Superdex 200)
# [2] = molecular target: T2, MSH2-MSH3 (MutSβ), purified (human, UniProt P43246 1-934; P20585 1-1137); assay: co-IP; in vitro immunoprecipitation: purified first protein on antibody-conjugated Dynabead protein G, washed with buffer X, second purified protein added for 1 h; western blot; details: both partners purified
# T2 construct: MSH2, human, full length; MSH3, human, full length; Purified on a HisTrap HP column; also called MSH2-MSH3 heterodimer; source: Hi5 insect cells (baculovirus), purified (HisTrap HP, Superdex 200)
# T2 sequence (P43246 whole entry, chain 1 of 2): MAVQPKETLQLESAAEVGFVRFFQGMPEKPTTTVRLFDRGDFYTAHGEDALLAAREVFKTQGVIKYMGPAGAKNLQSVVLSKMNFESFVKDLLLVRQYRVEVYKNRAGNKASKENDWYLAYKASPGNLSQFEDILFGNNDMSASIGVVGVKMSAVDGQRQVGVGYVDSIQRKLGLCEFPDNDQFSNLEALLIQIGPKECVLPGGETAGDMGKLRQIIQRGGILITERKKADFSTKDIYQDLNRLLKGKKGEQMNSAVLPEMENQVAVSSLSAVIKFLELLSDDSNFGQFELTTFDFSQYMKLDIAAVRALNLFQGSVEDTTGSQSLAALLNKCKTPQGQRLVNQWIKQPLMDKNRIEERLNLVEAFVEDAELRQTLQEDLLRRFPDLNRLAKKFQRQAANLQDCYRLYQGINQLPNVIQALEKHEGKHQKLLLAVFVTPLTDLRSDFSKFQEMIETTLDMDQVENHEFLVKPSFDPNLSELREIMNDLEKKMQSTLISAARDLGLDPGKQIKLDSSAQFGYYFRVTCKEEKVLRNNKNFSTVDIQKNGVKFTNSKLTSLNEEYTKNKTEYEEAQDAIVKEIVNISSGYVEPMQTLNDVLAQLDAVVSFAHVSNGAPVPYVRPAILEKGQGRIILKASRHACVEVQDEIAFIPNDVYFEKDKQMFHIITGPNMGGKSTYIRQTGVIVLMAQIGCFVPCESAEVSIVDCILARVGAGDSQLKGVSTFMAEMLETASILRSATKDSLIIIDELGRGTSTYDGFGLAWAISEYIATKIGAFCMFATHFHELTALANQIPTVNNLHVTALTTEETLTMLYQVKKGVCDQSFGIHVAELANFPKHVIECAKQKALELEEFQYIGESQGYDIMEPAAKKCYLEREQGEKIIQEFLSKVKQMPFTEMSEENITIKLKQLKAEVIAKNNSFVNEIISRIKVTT
# T2 sequence (P20585 whole entry, chain 2 of 2): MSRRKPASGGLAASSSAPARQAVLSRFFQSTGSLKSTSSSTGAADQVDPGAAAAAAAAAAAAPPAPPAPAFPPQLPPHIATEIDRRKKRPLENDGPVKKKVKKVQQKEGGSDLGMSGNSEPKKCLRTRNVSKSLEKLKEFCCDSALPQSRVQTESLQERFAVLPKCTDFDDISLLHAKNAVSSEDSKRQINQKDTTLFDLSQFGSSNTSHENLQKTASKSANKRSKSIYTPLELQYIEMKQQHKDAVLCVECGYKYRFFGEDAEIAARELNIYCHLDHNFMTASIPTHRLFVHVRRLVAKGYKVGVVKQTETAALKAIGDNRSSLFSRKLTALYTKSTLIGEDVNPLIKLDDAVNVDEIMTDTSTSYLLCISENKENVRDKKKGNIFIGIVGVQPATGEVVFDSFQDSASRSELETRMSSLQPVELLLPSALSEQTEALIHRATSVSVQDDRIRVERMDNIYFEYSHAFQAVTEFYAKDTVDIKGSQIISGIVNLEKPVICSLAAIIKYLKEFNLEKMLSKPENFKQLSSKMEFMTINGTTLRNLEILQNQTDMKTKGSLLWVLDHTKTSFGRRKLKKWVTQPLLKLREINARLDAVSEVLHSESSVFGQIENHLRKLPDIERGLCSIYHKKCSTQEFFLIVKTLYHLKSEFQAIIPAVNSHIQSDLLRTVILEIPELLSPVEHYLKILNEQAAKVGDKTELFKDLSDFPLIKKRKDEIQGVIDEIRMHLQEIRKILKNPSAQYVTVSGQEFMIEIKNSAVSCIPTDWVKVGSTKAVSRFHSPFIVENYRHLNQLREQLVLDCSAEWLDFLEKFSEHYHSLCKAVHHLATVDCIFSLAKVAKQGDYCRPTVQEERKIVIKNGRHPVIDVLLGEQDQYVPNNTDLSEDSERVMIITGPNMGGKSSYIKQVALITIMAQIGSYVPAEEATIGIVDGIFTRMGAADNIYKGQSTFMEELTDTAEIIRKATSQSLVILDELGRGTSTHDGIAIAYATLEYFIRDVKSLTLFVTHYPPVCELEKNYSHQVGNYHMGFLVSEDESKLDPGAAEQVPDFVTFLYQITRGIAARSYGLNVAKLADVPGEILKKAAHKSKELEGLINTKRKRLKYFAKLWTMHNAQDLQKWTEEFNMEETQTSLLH
# T1 sequence (P43246 whole entry, chain 1 of 2): as the sequence (P43246 whole entry, chain 1 of 2) above
# T1 sequence (P52701 whole entry, chain 2 of 2): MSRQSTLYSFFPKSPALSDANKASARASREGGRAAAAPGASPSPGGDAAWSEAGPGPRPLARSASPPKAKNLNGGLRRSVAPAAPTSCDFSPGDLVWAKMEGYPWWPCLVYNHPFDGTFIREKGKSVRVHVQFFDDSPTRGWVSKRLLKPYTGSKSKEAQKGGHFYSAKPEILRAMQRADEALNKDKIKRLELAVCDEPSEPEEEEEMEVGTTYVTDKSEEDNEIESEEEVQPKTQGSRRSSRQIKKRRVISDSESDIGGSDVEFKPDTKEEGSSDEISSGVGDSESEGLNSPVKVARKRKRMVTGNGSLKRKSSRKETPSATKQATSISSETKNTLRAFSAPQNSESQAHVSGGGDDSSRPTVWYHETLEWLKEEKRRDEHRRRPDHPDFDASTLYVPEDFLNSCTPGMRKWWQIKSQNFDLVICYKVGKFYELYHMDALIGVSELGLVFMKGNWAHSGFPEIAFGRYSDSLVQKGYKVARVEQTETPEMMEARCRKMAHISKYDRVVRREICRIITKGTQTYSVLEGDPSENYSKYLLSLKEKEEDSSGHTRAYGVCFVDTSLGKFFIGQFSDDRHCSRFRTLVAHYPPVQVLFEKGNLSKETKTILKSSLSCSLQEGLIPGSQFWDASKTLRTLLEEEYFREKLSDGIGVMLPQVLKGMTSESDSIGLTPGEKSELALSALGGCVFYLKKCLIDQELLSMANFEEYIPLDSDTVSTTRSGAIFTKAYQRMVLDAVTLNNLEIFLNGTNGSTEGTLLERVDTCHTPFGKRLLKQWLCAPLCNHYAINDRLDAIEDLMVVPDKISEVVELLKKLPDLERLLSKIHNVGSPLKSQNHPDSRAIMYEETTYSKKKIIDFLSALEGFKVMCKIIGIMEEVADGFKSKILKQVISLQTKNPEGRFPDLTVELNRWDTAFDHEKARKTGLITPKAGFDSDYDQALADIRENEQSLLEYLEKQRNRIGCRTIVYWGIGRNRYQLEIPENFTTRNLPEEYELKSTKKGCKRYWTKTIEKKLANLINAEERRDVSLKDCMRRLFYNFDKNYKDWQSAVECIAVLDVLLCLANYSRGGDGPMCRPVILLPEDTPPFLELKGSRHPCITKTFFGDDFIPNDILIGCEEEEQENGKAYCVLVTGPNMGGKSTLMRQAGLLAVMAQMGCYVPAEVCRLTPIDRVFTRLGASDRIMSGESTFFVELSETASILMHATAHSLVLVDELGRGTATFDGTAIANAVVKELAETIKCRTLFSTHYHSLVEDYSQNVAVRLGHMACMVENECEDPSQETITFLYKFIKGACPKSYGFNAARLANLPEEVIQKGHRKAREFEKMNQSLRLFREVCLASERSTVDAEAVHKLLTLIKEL
binder,measurement,setting,value
"SMARCAD1, purified (enzyme, human, UniProt Q9H4L7 1-1026, looked up, SMARCAD1, human, full length; source: Hi5 insect cells (baculovirus), purified (HisTrap HP, Superdex 200)) MNLFNLDRFRFEKRNKIEEAPEATPQPSQPGPSSPISLSAEEENAEGEVSRANTPDSDITEKTEDSSVPETPDNERKASISYFKNQRGIQYIDLSSDSEDVVSPNCSNTVQEKTFNKDTVIIVSEPSEDEESQGLPTMARRNDDISELEDLSELEDLKDAKLQTLKELFPQRSDNDLLKLIESTSTMDGAIAAALLMFGDAGGGPRKRKLSSSSEPYEEDEFNDDQSIKKTRLDHGEESNESAESSSNWEKQESIVLKLQKEFPNFDKQELREVLKEHEWMYTEALESLKVFAEDQDMQYVSQSEVPNGKEVSSRSQNYPKNATKTKLKQKFSMKAQNGFNKKRKKNVFNPKRVVEDSEYDSGSDVGSSLDEDYSSGEEVMEDGYKGKILHFLQDASIGELTLIPQCSQKKAQKITELRPFNSWEALFTKMSKTNGLSEDLIWHCKTLIQERDVVIRLMNKCEDISNKLTKQVTMLTGNGGGWNIEQPSILNQSLSLKPYQKVGLNWLALVHKHGLNGILADEMGLGKTIQAIAFLAYLYQEGNNGPHLIVVPASTIDNWLREVNLWCPTLKVLCYYGSQEERKQIRFNIHSRYEDYNVIVTTYNCAISSSDDRSLFRRLKLNYAIFDEGHMLKNMGSIRYQHLMTINANNRLLLTGTPVQNNLLELMSLLNFVMPHMFSSSTSEIRRMFSSKTKSADEQSIYEKERIAHAKQIIKPFILRRVKEEVLKQLPPKKDRIELCAMSEKQEQLYLGLFNRLKKSINNLEKNTEMCNVMMQLRKMANHPLLHRQYYTAEKLKEMSQLMLKEPTHCEANPDLIFEDMEVMTDFELHVLCKQYRHINNFQLDMDLILDSGKFRVLGCILSELKQKGDRVVLFSQFTMMLDILEVLLKHHQHRYLRLDGKTQISERIHLIDEFNTDMDIFVFLLSTKAGGLGINLTSANVVILHDIDCNPYNDKQAEDRCHRVGQTKEVLVIKLISQGTIEESMLKINQQKLKLEQDMTTVDEGDEGSMPADIATLLKTSMGL",binding result,[1],binds
same,binding result,[2],binds
